Experimental data from article PMC11203576.

Target: SARS-CoV-2 spike protein RBD, original (wild-type), sfGFP fusion (SARS-CoV-2) (UniProt P0DTC2)
Experiment: SPR; Biacore T200; […] (0.01 M HEPES, 0.15 M NaCl, 3 mM EDTA, 0.05% surfactant P20, […]

## Jacalin (natural protein)
  Kd: 428 nM
